Data as given in the nanobody polyreactivity screen of Harvey et al. (2022).

Assay: yeast display, Sf9 membrane polyspecificity reagent, FACS + sequencing; frameworks hold sequencing errors
Method in brief: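 Sorting gates, low and high (top ~1%), were placed on anti-HA fluorescence to track expression and on streptavidin fluorescence to track reagent binding. A clone's polyreactivity label is taken from the gate it came out of. The reagent was 10% biotinylated, detergent-solubilized Sf9 membrane, applied for 1 hour at 4 °C to galactose-induced yeast display cells.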

Sequence | polyreactivity (PSR sort gate)
QVQHVESGGGLVQAGGSLRLSCAASGFIFYRYTMVWYRQAHGKERELVAAISQSGGNTYYADSVKGRFTISRDNAKNTVYLLMNSLKPEDTAVYYCNAVYYYYAGNYWGQGTQVTVSS | high polyreactivity
QVQLVESGGGLVQAGGSLRLICAASGRTFDNYAMGWYRQAPGKEREFVAAITTGVGSTYADSVKGRFTISRDNAKNTVYLQMNSLKPEDTAVYYCAGDSYWLFDAYDYWGQGTKVTVSS | low polyreactivity
QVQLVESGGGLVQAGGSLRVSCAASGSTFNINAMGWYREAPGKERELVAAISSGGSTNYADSVKGRFTISRDNAKNTVYLQMNSLKPEDTAVYYCNADFILSGWWGIVGYDYWGQGTQVTVSS | low polyreactivity
HVQLVESGGGLVQAGGSLRLSCAASGSTFSGYAMGWYRQAPGKERELVAAISSSGGSTYYADSVKGRFTISRDNAKNTVYLQMNSLKPEDTAVYYCNADEYRGTSTEFEYWGQGTQVTVSS | high polyreactivity
QVQLVESGGGLVQAGGSLRLSCAASGITFQWYAMGWYRQAPGKERELVAGISSGGSTYYADSVKGRFTISRDNAKNTVYLQMNSLKPEDTAVYYCAADYGWYSPFYPSYKYEYWGQGTQVTVSS | low polyreactivity
QVQLVESGGGLVQAGGSLRLSCAASGFIFSYYAMGWYRQAPGKERELVAAISSGGSTYYADSVKGRFTISRDNAKNTVYLQMNSLKPEDTAVYYCAAAIWYIKLYFVRRTEHGYWGQGTQVTVSS | low polyreactivity
QVQLVESGGGLVQAGGSLRLSCDASGITFYRYAMGWYRQAPGKERELVAAITSGDTTYYADSVKGRFTISRDNAKNTVYLQMNSLKPEDTADYYCAAVAGYRVVRTRELGYWGQGTQVTVSS | high polyreactivity
QVQLVESGGGLVQAGGSLRLSCAASGRISLYYTMGWYRQAPGKEREFVAAISSTGGSTYYADSVKGRFTISRDNAKNTVYLQMNSLKPEDTAVYYCAKAYHATSDYWGQGTQVTVSS | low polyreactivity
QVQLVESGGCLVQAGCSLRLSCAASGGTFDVNAMGWYRQAPGKERELVAAITWSGGNTYYADSVKGRFTISRDNAKNTVYLQMNSLKPEDTAVYYCATDFSPVYYTRYDYWGQGTQVTVSS | low polyreactivity
QVQLEDSGGGLVQAGGSLRLSCAASGFIFGLNAMGWNRQAPGKERELVAAIRSASSTNYADSVKGRFTISRDNAKNTVYLQMNSLKPEDTAVYYCAAEYVTYQHGFWGYDYWGQGTQVTVSS | low polyreactivity
QVQLVESGGGLVQAGGSLRLSCAASGSTFVSYALGWYRQAPGKERDLVAAISRSGGSTYYADSVKGRFTISRDNAKNTVYVQMNRLKPEDTAVFYCAADCRGPSKRNRDYWGQGTEVTVSS | high polyreactivity
QVQLVESGGGLVQAGGSLRLTCAASGRIFLYYTMGWYRQAPGKERELVAAITRSGGSTYYADSVKGRFTISRDNAKNTVYLQMNSLKPEDTAVYYCKRAYVRYVPMNYWGQGTQVTLSS | high polyreactivity
QVQLVESGGGLVQAGGSLRLSCAASGRIFGQNVIGWYRQAPGIERELVAAITSAGRTYYADSVKGRFTISRDNAKNPVYLQMNSLKPEDTAVYYCAAQYPINYFTGYGYWGQGTQVTVSS | high polyreactivity
QVQLVESGGGLVQAGGSLRLSCAASGSIFGTNAMGWYRQAPGKERELVAAINWSGGTTYYADSVKGRFTISRDNAKNTVYLQMNSLKPEDTAVYYCATVFFVLPPTRFDSWGQGTQVTVSS | low polyreactivity
KVQLVESVGGLVQAGGSLRLSCAASGSIFRGNAIGWYRQAPGKERQLVAAISNSSGTTYYADSVKGRFTISRDNAKNTVYLQMNSLKPEDTAVYYCATRYYRGYVRGTHHVGGYYYRGQGTQVTVSS | low polyreactivity
TYRGTTTYYADSVKGRFPIARDYAKNTVYLQMHSLKPEETAVYNWTRYYPSEYDYWGQGTHVTVSS | high polyreactivity
QVQLVESGGGLVQAGGRLRLSCAASGGIFIKNAMGWYRQAPGKERELVAGISSGGNTYYADSVKGRFTISRDNAKNTVYLQMNSLKPEDTAVYYCAVRYYRRFGPLYDSWGQGTHVTVSS | low polyreactivity
QFQLVESGGGLVQAGGSLRLSCAASGSTFPYYAMGWYRQAPGNERELVASIRKRGGGTYYADSVKGRFTISRDNAKNTVYFQMNILKPEDTAVYYCAVRVYQFRYTGYDYWGQGTQVTVSS | high polyreactivity
QVQLVESGGGLVQAGGSLRLSCAASGSTLRRYAMGWYRQAPGKERELVAAITYRSGSTYYADSVKGRFTISRDNAKNTVYLQMNSLKPEDTAVYYCAKVGYVSKYWFAGDYWGQGTQVTVSS | high polyreactivity
QVQLVESGGGLVQAGGSLRLSCAASGRTFYKNTMGWYRQAPGKERELVAGISQRGGRTYYADSVKGRFTISRDNANYTVYLQMNSLKPEDTAVYYCAVRSYGHGFDYWGQGNQVTVSS | high polyreactivity
QVQLVESGGGLVQAGGSLRLSSAASGRTFGVNAMGWYRQAPGKERELVASISWGGGSTYYADSVKGRFTISRDNAKNTVYLQMNSLKPEDTAVYFCNRAYVRYVPMNYWGQGTQVTVSS | high polyreactivity
QVQLVESGGGLVQAGGSLRLSCAASGSTSVYYAMGWYRQTPGKERELVAAITWDDGSTSYADSVKGRFTISRDNAKNTVYLQMNSLKPEDTAVYYCAKDYEYLGAFNYWGQGTQVTVSS | low polyreactivity

Sequence | polyreactivity (PSR sort gate)
QVQLVESGGGLVQARGSLRLSCAASGIIFYPNAMGWYRQAPGKERELVASIRSGGITTYADSVKGRFTISRDNAKNTVYLQMNSLKPEDTAVYDCATRSYYRYATFAYYYWGQGTQVTVSS | high polyreactivity
QVQLVESGGGLVQAGGSLRLSCAASGRTFVTNAMGWYRQAPGKETELVAAISGTGGSTYYADSVKGRFTISRDNAKNTVYLQMNSLKPEDTAVYYCAAQKWRRGRYRDTAGPLFAYDYWGQGTQVTVSS | low polyreactivity
QVQLVESGGGLVQAGGSLRLSSAASGSIFYYNAMGWYRQAPGKEREFVAAISARGGSTYYADSVKGRFTISRDNAKNTVYLQMNSLKPEDTAVYYCAASWGLDTYSDSTYWGGYYYSGQGTQVTVSS | low polyreactivity
QVQLVESGGGLVQAGGSLRLRCAASGRTFYKNTMGWYRQAPGKERELVATISQRGGATYYADSVKGRFTISRDNAKNTVYLQMTSLKPEDTAVYYCNARKYTQSIHYDYWGQGTQVTVSS | high polyreactivity
QVQLVESGGGLVQAGGSLRLSCAASGGTLYIYAMGWDRQAPGKERELVAAIRGRGGSTYADSVKGRCTISRDNAKNTVYLQMNSLKPEDTAVYYCAASGIRYWLPYDYWGQGTQVTVSS | high polyreactivity
QVQLVESGGGLVQAGGSLRLSCAASGSNVPSYAMGWYRQAPGKERELVAAINSGGGTNYADSVKGRFTISRDNAKNTVYVQMNSLKPEDTAVYYCAKSRYDYTKTEGGYWGQGTQVTVSS | low polyreactivity
QVQLVESGGGLVQAGGSLRLTCAASGSIFPDNAMAWYRQAPGNERELVAAITSSGGSTYYADSVKGRLRISRDNAKNTVYLQMNSLKPADSAVYYCAKGRSYSVAKRRLYKYWGQGTEVTVSS | high polyreactivity
QVQLVESGGGLVQAGGSLRLSCAASGFTSTLNDMGWYRQAPGKERELVAAISNGGSTYYADSVKGRFTISRDNAKNTVYLQMNSLKPEDTAVYYCAVTATAPQEGDYWGQGTQVTVSS | low polyreactivity
QVQLVESGGGLVQAGGSLRLSCAASGSPFLTNAMGWDRQAPGKERELVAAITWSTGSTYYADSVKGRFTISRDNAKNTVYLQMNSLKPEDTAVYYCNARSEVSYWWGGYWGEGTQVTVSS | low polyreactivity
QVQLVESGGCLVQAGGRLRLSCAASGFIFHGYAMGWYRPAPGKERELVAAISSRGGTTYYADSVQGRFTISRDKAKTTVYLQMNSLKPEDSAVDDCAADKIRYITSPVPFYYWGQGTQVTVSS | high polyreactivity
QVQLVESGGGLVQAGGSLRLSCAASGRIFTRYAMGWYRQAPGKERELVAAITYNGGSTYYADSVKGRFTISRDNAKNTVYLQMNSLKPEDTAVYYCNAVYLSWFGLYAGFDYWGQGTQVTVSS | high polyreactivity
QVQLVESVGGLVQAGGSLRLSCAASGSIFVPYAMGWYRQAPGKEREFVAAIYSGGGNTYYADSVKGRFTISRDNAKNTVYLQMNSLIPEDTAVYYCAAAYFYSSWSRYDYWGQGTQVTVSS | high polyreactivity
QVQLVESGGGLVQAGGSLRLSCAASGSILVPYAMGWYRQAPGKERELVAAISIRTGSTYYADSVKGRFTISRDNAKNTVYLQMNSLKPEDTAVYYCNAAHRKPYTGLNYWGQGTQVTVSS | high polyreactivity
HVQLVESGGGLVQAGGSLRLSCAASGRNYYTYTMGRSRQAPGKEKQLVATITVGTRTNYADSVKGRFTISRDNAQNTVYLQMNSLKRVDTAVYYCNAEWSSKRFTGDDYWGQGTQVTVSS | low polyreactivity
QVQLVESGGGLVQAGGSLRLSCAASGRTFWAYAMGWYRQAPGKERELVAAISVSGGRTYYADSVKGRFTISRDNAKYTVYLQMNSLKPEDSAVYYCNKRYLKSYQYYWGQGSQVTVSS | high polyreactivity
HVQLVESGGGLVQAGGSLRLSCAASGIIFRYKALGWYREAPGKERELVAAISVSGGSTYYADSVKGRFTISRDNAKNTVDLQMNSLKPEDTAVDYCAALLYRYGVHQAEHDYWGQGTQVTVSS | high polyreactivity
QVQLVESGGGLVQAGGSLRLSCAASGSTFDIYAMGWYRQAPGKERELVAVISGGDGSTYYADSVKGRFTISRDNAKNTVYLQMNSLKPEDTAVYYCAADYISPGYCDGEYDCWGQGTQVTVSS | low polyreactivity
QVQLVESGGGLVQAGGSLRLSCAASGIIFDRYAMGWYRQAPGKERELVAAITYGGGSTYYADSVKGRFTISRDNAKNTVYLQMNSLKPEDTAVYYCAAVSTWFYQYYYWGQGTQVTVSS | high polyreactivity
QVQLVESGGGLVQAGGRLRLTCAPSGTIIYQYAMGFDRHAPGKERELVAASSTTGGPTYYADSVKGRFTISRDNAKKTVYLQMNSLKPEDTAVYYCAAEKYYGYDYWGQGTQVTVSS | high polyreactivity
QVQLVESGGGLVQAGGSLLLSCAASGSIFYYYAMGWYRQAPGKERELVAAISKSGGSTYADSVKGRFTISRDNAKNTVYLQMNSLKPEDTAVYYCAKEFKYWGYPYDYWGQGTQVTVSS | low polyreactivity
QVQLVESGGGLVQAGGSLRLSCAASGFIFYGYTMGWYRQAPGKERELVAAITFSGGRTYYADSVKGRFTISRDNAKNTVYLQMNSLKPEDTAVYYCNARVVNYFRPRTGAREYDYWGQGTQVTVSS | high polyreactivity
